Laboratory results: patent EP1260521B1

Columns and labels:
[1] = target: membrane IgE on U266 B1 cells (human) (UniProt P01854); test: FACS on U266 B1 cells
[2] = target: FCEH-bound IgE (human IgE loaded on FcERI alpha) (human) (UniProt P01854); test: cell-based or functional assay
human IgE (human) = human IgE (human) (UniProt P01854); test: 50% inhibition assay of IgE binding to FCEH

EC50 [1] [µg/mL]	PBL Histamine Release (EC50) [2] [µg/mL]	IC50 (human IgE (human)) [µg/mL]	Var. X / IgL1H1 (human IgE (human))	Var. X / MaE11 (human IgE (human))	Binder
6	> 100	–	–	–	MaE 15 (antibody, from another filing, mouse IgG1, V domains shown) VH: DVQHQESEPDLVKPSQSLSLTCTVTGYSITSGYNRHWIRQFPGNKLEWMGYIHYSGSTNYNPSLKRRISITRDTSKNQFFLQLNSVTTEDTATYYCARGSIYYYGSRYRYFDVWGAGTTVTVSS VL: DIQLTQSPASLAVSLGQRATISCKASQSVDYDGDSYMNWYQQKPGQPPKLLIYAASNLESGIPARFSGSGSGTDFTLNIHPVEEEDAATYYCQQSNEDPFTFGAGT
0.15	> 100	0.449	0.06	1	MaE 11 (antibody, from another filing, mouse IgG1, V domains shown) VH: DVQLQESGPGLVKPSQSLSLACSVTGYSITSGYSWNWIRQFPGNKLEWMGSITYDGSSNYNPSLKNRISVTRDTSQNQFFLKLNSATAEDTATYYCARGSHYFGHWHFAVWGAGTTVTVSS VL: DIVLTQSPASLAVSLGQRATISCKASQSVDYDGDSYMNWYQQKPGQPPILLIYAASYLGSEIPARFSGSGSGTDFTLNIHPVEEEDAATFYCQQSHEDPYTFGAGTKLEIK
1	> 10	–	–	–	MaE 13 (antibody, from another filing, mouse IgG1, V domains shown) VH: DVQLQESGPGLVKPSQSLSLTCTVTGYTITSDNAWNWIRQFPGNKLEWMGYINHSGTTSYNPSLKSRISITRDTSKNQFFLQLNSVTTEDTATYYCAWVVAYAMDYWGQGTSVTVSS VL: DIVMTQSQKFMSTSVGDRVSVTCKASQNVSSNVAWYQQKPGQSPKALIYSASYRYSGVPDRFTGSGSGTDFTLTISNVQSEDLAEYFCQQYYTYPLYTFGGGTKLEIKR
